6 molecules from patent US6458552B1, “Metalloprotease peptide substrates and methods” (Ortho-McNeil Pharmaceutical, Inc., priority 2000, dated 2002) can be followed below.

One data set deals with ADAM8. The experiment in a line: ADAM8 protein expression in THP-1 cells (immunoblot). The conditions noted are these: LPS 100 ng/ml 16 hours, IFN-γ 200U/ml 24 hours. Format: cell-based, human. The procedure:
Polyclonal antisera against ADAM8 and ADAM15 were generated by immunizing rabbits with KLH-conjugated peptides corresponding to the C-terminal sequences of ADAM8 and 15, respectively. The antisera were used to detect ADAM8 and ADAM15 in THP-1 cell lysates. THP-1 cells were treated with interferon(IFN)-γ (200U/ml) or bacterial lipopolysaccharide (LPS) (100 ng/ml), for 24 hours or 16 hours, respectively. The cells were then harvested, washed with PBS and lysed in PBS containing 1% NP-40 and Complete® protease inhibitors. The cell extracts were analyzed for expression of ADAM8 and ADAM15 by SDS-PAGE, transfer to nitrocellulose, and immunoblotting with the antisera to ADAM8 and ADAM15, respectively. […] The corresponding pre-immune sera gave no positive bands at these molecular weights for THP-1 cell extracts in similar assays.

Data set [1] concerns the target T1, AD8P2 FRET peptide X-RVRRALPS-Z (not fully specified).
T1 chain: RVRRALPS

In data set [2] the target is T2, TNFα FRET peptide X-PLAQAVRSSS-Z (not fully specified).
T2 chain: PLAQAVRSSS

In data set [3] the target is T3, CatE1 FRET peptide X-KPAKFFRL-Z (not fully specified).
T3 chain: KPAKFFRL

In data set [4] the target is T4, CD27L FRET peptide X-RFAQAQQQLP-Z (not fully specified).
T4 chain: RFAQAQQQLP

Data set [5] has as its target T5, TNFB2 FRET peptide X-PSAAQTARQHP-Z (not fully specified).
T5 chain: PSAAQTARQHP

Data set [6] addresses T6, KAS-1 FRET peptide Z-RGVVNASSRLAK-X (not fully specified).
T6 chain: RGVVNASSRLAK

The target of data set [7] is T7, AD8P FRET peptide X-RTAAVFRP-Z (not fully specified).
T7 chain: RTAAVFRP

Data set [8] addresses T8, TNFα(-4 + 6) FRET peptide Z-LAQAVRSSSR-X (not fully specified).
T8 chain: LAQAVRSSSR

The target in data set [9] is T9, CatE FRET peptide X-KPAAFFRL-Z (not fully specified).
T9 chain: KPAAFFRL

Data set [10] concerns the target T10, Mat FRET peptide Z-RPLGLAR-X (not fully specified).
T10 chain: RPLGLAR

Data set [11] deals with T11, KL1 FRET peptide X-PPVAASSLRN-Z (not fully specified).
T11 chain: PPVAASSLRN

For the next data set, the system named is membrane-bound CD23. In words: Cleavage of CD23 from the surface of U937 cells by ADAM enzymes (flow cytometry). It counts as cell-based, human. The settings on record: U-937 cells, one hour at 37° C. The procedure:
U-937 (ATCC CRL-1593.2), a monoblastoid cell line, were harvested, washed and resuspended in HEPES-buffered saline, pH 7.5. Then the cells were treated for one hour at 37° C. in the absence or presence of ADAM8, ADAM17, ADAM15 or MDC-L. As a further control, some cells were incubated in the presence of ADAM8, ADAM17, ADAM15 or MDC-L with the addition of Inhibitor C. Intact, membrane-bound CD23 was then detected by staining the cells with a FITC-conjugated anti-human CD23 antibody (Pharmingen) and detection by flow cytometry.
A general note: A flow cytometer gives signals particle by particle.

As to IFN-γ: interferon-γ, in the data set on ADAM8, the “Up-regulation of ADAM8 at the protein level” value was “approximately ten-fold”.

B1: soluble recombinant human MDC-L, active form (protein)
chain: VQEHEKYIEYYLVLDNGEFKRYNENQDEIRKRVFEMANYVNMLYKKLNTHVALVGMEIWTDKDKIKITPNASFTLENFSKWRGSVLSRRKRHDIAQLITATELAGTTVGLAFMSTMCSPYSVGVVQDHSDNLLRVAGTMAHEMGHNFGMFHDDYSCKCPSTICVMDKALSFYIPTDFSSCSRLSYDKFFEDKLSNCLFNAP
In the case of B1, the Relative proteolytic activity entry is recorded as “***” in [1]; “***” in data set [2]; “*****” in data set [3]; “****” in [4]; “***” in [5]; “***” in data set [6]. Moreover, the Relative proteolytic activity entry in data set [7] is “*”; in data set [8] it was “*”; in data set [9], “*****”; in [10] it was “***”; in data set [11], “***”.

B2: MDC-L: recombinant soluble MDC-L: pro- and protease domains with C-terminal FLAG epitope (protein)
chain: B1 chain
modifications: left off: small tags and cut ends
With B2, in the data set with membrane-bound CD23, the “Cleavage of membrane-bound CD23 from the cell surface” value is reported as “similarly found to cleave membrane-bound CD23”.

B3: soluble recombinant human ADAM8, active (processed) form (protein)
chain: RYVELYVVVDNAEFQMLGSEAAVRHRVLEVVNHVDKLYQKLNFRVVLVGLEIWNSQDRFHVSPDPSVTLENLLTWQARQRTRRHLHDNVQLITGVDFTGTTVGFARVSAMCSHSSGAVNQDHSKNPVGVACTMAHEMGHNLGMDHDENVQGCRCQERFEAGRCIMAGSIGSSFPRMFSDCSQAYLESFLERPQSVCLANAP
On to B3, for which the Relative proteolytic activity entry in data set [1] is listed as “***”; in [2], “***”; in data set [3], “*****”; in [4] it was “****”; in data set [5], “***”; in [6], “***”. Moreover, the Relative proteolytic activity entry was “*” in data set [7]; “*” in data set [8]; “*****” in data set [9]; “***” in data set [10]; “***” in [11]. The Hill coefficient entry in data set [2], in [3], in [4] and in data set [9] was “allosteric kinetics with a Hill coefficient of approximately 3” throughout. The K0.5 (substrate concentration at which the enzyme activity was 50% of the Vmax) is 5 µM in data set [2], 2.5 µM in data set [3], 5 µM in [4] and 5 µM in data set [9]. Moreover, the FRET peptide zymography entry in data set [3] is “lanes 2 and 3 contain active, processed, ADAM8 preparations”.

B4: recombinant ADAM17 (protein)
chain: RADPDPMKNTCKLLVVADHRFYRYMGRGEESTTTNYLIELIDRVDDIYRNTSWDNAGFKGYGIQIEQIRILKSPQEVKPGEKHYNMAKSYPNEEKDAWDVKMLLEQFSFDIAEEASKVCLAHLFTYQDFDMGTLGLAYVGSPRANSHGGVCPKAYYSPVGKKNIYLNSGLTSTKNYGKTILTKEADLVTTHELGHNFGAEHDPDGLAECAPNEDQGGKYVMYPIAVSGDHENNKMFSNCSKQSIYKTIESKAQECFQERSNKV
With B4, the “Cleavage of membrane-bound CD23 from the cell surface” value in the data set with membrane-bound CD23 was “does not cleave CD 23”. In addition, the Relative proteolytic activity entry in data set [1] was “(-)”; in data set [2], “***”; in data set [3] it was “(-)”; in data set [4], “(-)”; in [5] it was “(-)”; in data set [6], “(-)”. Besides, the Relative proteolytic activity result in [7] is listed as “*****”; in data set [8], “***”; in [9] it was “(-)”; in data set [10] it was “***”; in [11] it was “(-)”.

B5: soluble recombinant human ADAM15, active form (protein)
chain: DVVTETKTVELVIVADHSEAQKYRDFQHLLNRTLEVALLLDTFFRPLNVRVALVGLEAWTQRDLVEISPNPAVTLENFLHWRRAHLLPRLPHDSAQLVTGTSFSGPTVGMAIQNSICSPDFSGGVNMDHSTSILGVASSIAHELGHSLGLDHDLPGNSCPCPGPAPAKTCIMEASTDFLPGLNFSNCSRRALEKALLDGMGSCLFERL
On to B5, for which the Relative proteolytic activity entry in data set [1] is recorded as “***”; in data set [2], “***”; in [3], “*****”; in data set [4], “****”; in data set [5], “***”; in data set [6] it was “***”. Besides, the Relative proteolytic activity result in [7] is reported as “*”; in data set [8], “*”; in data set [9] it was “*****”; in data set [10] it was “***”; in data set [11], “***”.
